Molecular target: the molecule itself
Assay: SEC; Superdex 200 increase 10/300 GL, buffer A (50 mM triethanolamine hydrochloride, 1 mM MgCl2, pH 7.0), 0.75 mL/min; apparent native mass from a calibration curve with carbonic anhydrase, bovine serum albumin, alcohol dehydrogenase and beta-amylase; affinity-purified protein loaded

B1: NADPH-dependent alcohol dehydrogenase of Lactobacillus brevis, wild type (LbADH^WT), with N-terminal Strep-tag II (enzyme, UniProt Q84EX5 1-252, looked up)
chain: MSNRLDGKVAIITGGTLGIGLAIATKFVEEGAKVMITGRHSDVGEKAAKSVGTPDQIQFFQHDSSDEDGWTKLFDATEKAFGPVSTLVNNAGIAVNKSVEETTTAEWRKLLAVNLDGVFFGTRLGIQRMKNKGLGASIINMSSIEGFVGDPSLGAYNASKGAVRIMSKSAALDCALKDYDVRVNTVHPGYIKTPLVDDLPGAEEAMSQRTKTPMGHIGEPNDIAYICVYLASNESKFATGSEFVVDGGYTAQ
notes: NADPH-dependent (R-specific) alcohol dehydrogenase of Lactobacillus brevis; 251 amino acid residues and 26.6 kDa per subunit as printed; calculated mass of the monomer with StrepTag-II 28.2 kDa; The plasmid pASK-IBA5plus-Lbadh^WT was a gift (Prof. W. Kroutil); not shown: Strep-tag II, N-terminal, kept
stoichiometry N: 4

From publication PMC6969876, “NADPH biosensor-based identification of an alcohol dehydrogenase variant with improved catalytic properties caused by a single charge reversal at the protein surface” (AMB Express, 2020)
